Measured values as given in patent US9688764B2, “Methods of treating breast cancer by administering anti-human prolactin receptor (PRLR) antibodies” (REGENERON PHARMACEUTICALS, INC., priority 2013, dated 2017).
Where two headings read alike, the source gives them in different places.

B1: H1H6958N2-SPDB-DM4 (conjugate)
VH: QVQLVESGGGVVQPGRSLRLSCGASGFTFRNYGMQWVRQGPGKGLEWVTLISFDGNDKYYADSVKGRFTISRDNSKNTLFLQMNSLRTEDTAVYYCARGGDFDYWGQGTLVTVSS
VL: DIQMTQSPSSLSASVGDRVTITCRASQDIRKDLGWYQQKPGKAPKRLIYAASSLHSGVPSRFSGSGSGTEFTLTISSLQPEDFATYYCLQHNSYPMYTFGQGTKLEIK
B2: H1H6953N-mc-VC-PAB-MMAE (conjugate)
VH: EVQLLESGGGLVQPGGTLRLSCAASGFTFSAYAMSWVRQAPGKGLEWVSSINVRAGDTYYADSVKGRFTISRDNSKNTLFLLMNSLRAEDTAAYYCAKARYSSNWGFDFWGQGTLVTVSS
VL: DIVMTQSPDSLTVSLGARTTINCQSSQTILHSSNNHNYLAWYQQKPGLPPKLLIYWSSTRESGVPDRFSGSGSGTDFTLTISSLQAEDVAIYYCQQYSNTPYTFGQGTKLEIN
B3: H1H6953N-mc-VC-PAB-MeNHC3-May (conjugate)
VH: EVQLLESGGGLVQPGGTLRLSCAASGFTFSAYAMSWVRQAPGKGLEWVSSINVRAGDTYYADSVKGRFTISRDNSKNTLFLLMNSLRAEDTAAYYCAKARYSSNWGFDFWGQGTLVTVSS
VL: DIVMTQSPDSLTVSLGARTTINCQSSQTILHSSNNHNYLAWYQQKPGLPPKLLIYWSSTRESGVPDRFSGSGSGTDFTLTISSLQAEDVAIYYCQQYSNTPYTFGQGTKLEIN
B4: H1H6953N-mc-VC-PAB-MMD (conjugate)
VH: EVQLLESGGGLVQPGGTLRLSCAASGFTFSAYAMSWVRQAPGKGLEWVSSINVRAGDTYYADSVKGRFTISRDNSKNTLFLLMNSLRAEDTAAYYCAKARYSSNWGFDFWGQGTLVTVSS
VL: DIVMTQSPDSLTVSLGARTTINCQSSQTILHSSNNHNYLAWYQQKPGLPPKLLIYWSSTRESGVPDRFSGSGSGTDFTLTISSLQAEDVAIYYCQQYSNTPYTFGQGTKLEIN
B5: H1H6765P-SMCC-DM1 (conjugate)
VH: EVQLVESGGGVVRPGGSLRLSCVGSGFSFDDHGMNWVRQGPGKGLEWVSGFNWNGGSTNYAESVKGRFTISRDNARNSLFLQMNSLRAEDTALYYCVRGRSGWFNDAFDVWGPGTMVTVSS
VL: EIVLTQSPGTLSLSPGERATLSCRASQTINSNYLAWYRQKPGQTPRLLIYGTSSRATGIPDRFSGSGSGTDFSLTISRLEPEDFAVFYCQQYAGLPTFGPGTKVDIK
B6: H1H6782P-SMCC-DM1 (conjugate)
VH: EVQLVESGGGLVQPGRSLRLSCAASGFTFDDYAMHWVRQAPGKGLEWVSGIIWNSGHIGYGDSVKGRFTISRDNAKKSLYLQMNSLRAEDTALYYCARDSGRYQSYFDYWGQGTLVTVSS
VL: DIQMTQSPSTLSASVGDRVTITCRASHIISSWLAWYQQKPGKAPKVLIFKASSLESGVPSRFSGSGSGTEFTLTISSLQPDDFATYYCQQYNTYSRTFGQGTKVEIK
B7: H1H6782P-mc-VC-PAB-MeNHC3-May (conjugate)
VH: EVQLVESGGGLVQPGRSLRLSCAASGFTFDDYAMHWVRQAPGKGLEWVSGIIWNSGHIGYGDSVKGRFTISRDNAKKSLYLQMNSLRAEDTALYYCARDSGRYQSYFDYWGQGTLVTVSS
VL: DIQMTQSPSTLSASVGDRVTITCRASHIISSWLAWYQQKPGKAPKVLIFKASSLESGVPSRFSGSGSGTEFTLTISSLQPDDFATYYCQQYNTYSRTFGQGTKVEIK
B8: H1H6782P-mc-VC-PAB-MMD (conjugate)
VH: EVQLVESGGGLVQPGRSLRLSCAASGFTFDDYAMHWVRQAPGKGLEWVSGIIWNSGHIGYGDSVKGRFTISRDNAKKSLYLQMNSLRAEDTALYYCARDSGRYQSYFDYWGQGTLVTVSS
VL: DIQMTQSPSTLSASVGDRVTITCRASHIISSWLAWYQQKPGKAPKVLIFKASSLESGVPSRFSGSGSGTEFTLTISSLQPDDFATYYCQQYNTYSRTFGQGTKVEIK
B9: H1H6975P-SMCC-DM1 (conjugate)
VH: EVHLVESGGGLVQPGGSLRLSCAASGFTFSSYEMNWVRQTPGKGLEWISHISSRSVIIYYADSVKGRFTISRDNAKNSLFLQMNSLRAEDTAVYFCAGITIFGIPEYWGQGTLVTVSS
VL: EIVLTQSPATLSLSPGERATLSCRASQSVSSYFAWYQQKPGQAPRLLIYDASSRATGIPTRFSGSGSGTDFTLTISSLEPEDFAVYYCQQRSSWPITFGQGTRLEIK
B10: H1H6975P-mc-VC-PAB-MMD (conjugate)
VH: EVHLVESGGGLVQPGGSLRLSCAASGFTFSSYEMNWVRQTPGKGLEWISHISSRSVIIYYADSVKGRFTISRDNAKNSLFLQMNSLRAEDTAVYFCAGITIFGIPEYWGQGTLVTVSS
VL: EIVLTQSPATLSLSPGERATLSCRASQSVSSYFAWYQQKPGQAPRLLIYDASSRATGIPTRFSGSGSGTDFTLTISSLEPEDFAVYYCQQRSSWPITFGQGTRLEIK

Experiments:
T47D cells = assay: Cell viability (cell kill) assay; assay type: cell-based; conditions: T47D; for IC50: read-out: IC50
Experimental: (§1) Next, the ability of anti-PRLR-DM1 antibody-drug conjugates (i.e., anti-PRLR antibodies conjugated to DM1 via a non-cleavable linker [SMCC]) to reduce cell viability was determined using in vitro cell based assays. Cells were seeded in PDL-coated 96 well plates at 1500 to 10000 cells per well in complete growth media and allowed to grow overnight. For cell viability curves, ADCs or free DM1 (as the methyl disulfide derivative DM1-SMe) were added to the cells at final concentrations ranging from 500 nM to 5 pM and incubated for 3 days. The 293, PC3 and T47D cells were incubated with CCK8 (Dojindo, Rockville, Md.) for the final 1-3 hours and the absorbance at 450 nm (OD450) was determined on a Flexstation3 (Molecular Devices, Sunnyvale, Calif.). MCF7 cells were treated with Hoechst 33342 nuclear stain while being fixed with 4% formaldehyde. Images were acquired on the ImageXpress micro XL (Molecular Devices, Sunnyvale, Calif.) and nuclear counts were determined via Columbus image analysis software (Perkin Elmer, Shelton, Conn.). Background OD450 values (PC3, 293, and T47D) or nuclear counts (MCF7) from digitonin (40 nM) treated cells was subtracted from all wells and viability was expressed as a percentage of the untreated controls. IC50 values were determined from a four-parameter logistic equation over a 10-point response curve (GraphPad Prism).
Additionally, the impact of the PRLR ligand, PRL, on PRLR-SMCC-DM1 cell kill in T47D cells was assessed. T47D cells were incubated simultaneously with PRL (15 nM) and either a non-blocking anti PRLR antibody (H1H6782P) or a receptor blocking antibody (H1H6958N2).
(§2) Additional toxins (DM4, MeNHC3-May, and MMD) conjugated to anti-PRLR antibodies were also tested in T47D and MCF7/hPRLR cell lines, and results are summarized in Tables 19 (293 and T47D cell killing) and 20 (MCF7/ATCC and MCF7/PRLR cell killing). (ND=not detected).

HEK293 (293) cells = assay: Cell viability (cell kill) assay; assay type: cell-based
Source text: (§3) PRLR-overexpressing cells, including HEK293, PC3, MCF7 and NCI-N87, were generated to assess the ability of anti-PRLR conjugated antibodies to reduce cell viability. For comparative purposes, PC3 and T47D cells with overexpressed ErbB2 were also generated, as well as an MCF7 cell line over-expressing both hPRLR and hErbB2. Briefly, Lipofectamine® 2000-mediated transfection methodology was utilized to generate HEK293 cells expressing human PRLR (HEK293/hPRLR) or human ErbB2 (HEK293/hErbB2). Lipofectamine LTX with Plus Reagent was used to generate PC3 cells expressing human PRLR (PC3/hPRLR) or human ErbB2 (PC3/hErbB2). Lentiviral-mediated transduction was utilized to generate MCF7 cells expressing human PRLR (MCF7/hPRLR), NCI-N87 cells expressing human PRLR (NCI-N87/hPRLR), T47D cells over-expressing human ErbB2 (T47D/hErbB2), and MCF7 cells expressing both human PRLR and human ErbB2 (MCF7/hPRLR/hErbB2). All lines were selected for at least two weeks in complete growth media plus appropriate selection reagents. Stably expressing populations were enriched for PRLR expression via FACS using the anti PRLR antibody Control I.
as §1

[1] = tested on: MCF7/hPRLR (MCF7/PRLR) cells; assay: Cell viability (cell kill) assay, nuclear counts; assay type: cell-based, human
Source text: as §3, §1
(§4) Finally, the potency of anti-PRLR antibodies conjugated to DM1 via the non-cleavable linker SMCC was compared to the cell killing potency of anti-PRLR antibodies conjugated to MMAE via the cleavable linker: mc-vc-PAB (available from Concortis, San Diego, Calif.). Cells used in this experiment were PC3, PC3/hPRLR, MCF7/ATCC and MCF7/PRLR.
as §2

MCF7 (MCF7/ATCC) cells = assay: Cell viability (cell kill) assay, nuclear counts; assay type: cell-based; conditions: MCF7/ATCC
Source text: as §3, §1, §4, §2

PC3/hPRLR cells = assay: Cell viability (cell kill) assay; assay type: cell-based, human; conditions: PC3/hPRLR; Table 18
Source text: as §3, §1, §4

| Molecule | % Kill (T47D cells; Table 19) [%] | IC50 (T47D cells; Table 19) [nM] | % Kill (HEK293 (293) cells; 293, Table 19) [%] | IC50 (HEK293 (293) cells; 293, Table 19) [nM] | % Kill ([1]; Table 20) [%] | IC50 ([1]; Table 20) [nM] | % Kill (MCF7 (MCF7/ATCC) cells; Table 20) [%] | IC50 (MCF7 (MCF7/ATCC) cells; Table 20) [nM] | % Kill (PC3/hPRLR cells) [%] | IC50 (PC3/hPRLR cells) [nM] | % Kill ([1]; Table 18) [%] | IC50 ([1]; Table 18) [nM] | % Kill (MCF7 (MCF7/ATCC) cells; Table 18) [%] | IC50 (MCF7 (MCF7/ATCC) cells; Table 18) [nM] | IC50 (T47D cells; Table 13, + 15 nM PRL) [nM] | IC50 (T47D cells; Table 13, without PRL) [nM] | IC50 (HEK293 (293) cells; HEK293, Table 13, + 15 nM PRL) [nM] | IC50 (HEK293 (293) cells; HEK293, Table 13, without PRL) [nM] |
| --- | --- | --- | --- | --- | --- | --- | --- | --- | --- | --- | --- | --- | --- | --- | --- | --- | --- | --- |
| COc1cc2cc(c1Cl)N(C)C(=O)CC(OC(=O)C(C)N(C)C(=O)CCSSC)C1(C)OC1C(C)C1CC(O)(NC(=O)O1)C(OC)C=CC=C(C)C2 (stereo not drawn) [Free DM1 (Me-SS-May)] | 100 | 1.5 | 95 | 1.2 | 80 | 0.8 | 80 | 1.3 |  |  |  |  |  |  |  |  |  |  |
| B1 | 100 | 1 |  |  | 90 | 0.8 | 80 | 25 |  |  |  |  |  |  |  |  |  |  |
| B2 | 80 | 1 |  |  | 85 | 0.1 | 40 | 150 | 80 | 0.2 | 85 | 0.1 | 42 | 150 |  |  |  |  |
| B3 | 90 | 1 |  |  | 80 | 0.2 | 60 | 150 |  |  |  |  |  |  |  |  |  |  |
| B4 | 90 | 1 | 70 |  | 90 | 0.2 | 50 |  |  |  |  |  |  |  |  |  |  |  |
| B5 | 90 | 1 | 100 | 85 | 90 | 0.3 | 70 | 150 | 83 | 0.3 | 81 | 0.1 | 71 | 90 |  |  |  |  |
| B6 | 100 | 3 | 80 | 120 | 80 | 0.3 | 70 | 250 |  |  |  |  |  |  | 2 | 1 | 70 | 90 |
| B7 | 90 | 2 | 90 |  | 80 | 0.2 | 50 | 250 |  |  |  |  |  |  |  |  |  |  |
| B8 | 90 | 2 | 70 |  | 90 | 0.3 | 50 | 200 |  |  |  |  |  |  |  |  |  |  |
| B9 | 100 | 2 | 90 | 80 | 80 | 0.2 | 70 | 200 |  |  |  |  |  |  |  |  |  |  |
| B10 | 90 | 3 | 80 |  | 90 | 0.2 | 50 | 150 |  |  |  |  |  |  |  |  |  |  |
